Source: paper PMC5868266
pKd: −log10 of the molar value.

What was measured:
[1] = molecular target: human C3b (human) (UniProt P01024); experiment: SPR
[2] = molecular target: equine C3b (horse (endogenous in equine plasma)); experiment: SPR; same injections as a1, steady-state binding model; for SCIN-A on eqC3b the concentrations were subsaturating, so the fit used a constant Rmax based on the eqSCIN/eqC3b interaction
[3] = molecular target: human C3b (human) (UniProt P01024); experiment: as above
[4] = molecular target: equine alternative pathway C3 convertase (eqC3bBb) (horse (endogenous in equine plasma))
[5] = molecular target: equine C3b (horse (endogenous in equine plasma)); experiment: SPR; Biacore T200; biotinylated C3b captured on a neutravidin-coupled CMD-200 chip (eqC3b 3,000 RU, human C3b 4,200 RU); SCIN injected 2 min at 2.5-2,500 nM, dissociation 3 min; 25 °C; 20 mM HEPES pH 7.3, 140 mM NaCl, 0.005% Tween 20; 30 μl/min; triplicate; 1:1 kinetic model (KD = kd/ka)
[6] = molecular target: human C3b (human) (UniProt P01024); experiment: as above

Row | Substance | pKd [1] | koff [1] | kon [1] | pKd [2] | pKd [3] | inhibition of eqC3 cleavage (α-chain to α′) by fluid-phase eqC3bBb, eqSCIN 0.04-10 μM, densitometry of reducing SDS-PAGE [4] | pKd [5] | koff [5] | kon [5] | pKd [6] | koff [6] | kon [6]
1 | staphylococcal complement inhibitor SCIN-A (natural protein) | 6.85 | 0.092 s⁻¹ | 630000 M⁻¹ s⁻¹ | 4.54 | 6.85 |  |  |  |  |  |  | 
2 | equine staphylococcal complement inhibitor (eqSCIN) (natural protein) |  |  |  | 6.66 | 6.52 | 0.61 µM | 7.21 | 0.11 s⁻¹ | 1.8e+06 M⁻¹ s⁻¹ | 6.64 | 0.13 s⁻¹ | 550000 M⁻¹ s⁻¹
